# Source: publication PMC6825352, “Ghd8 controls rice photoperiod sensitivity by forming a complex that interacts with Ghd7”
# B1: F1 (dsDNA)
# DNA 1: ATCTGGTTGCAATGGGGATGGCCAATGAGGAGTCG
# DNA 2: CGACTCCTCATTGGCCATCCCCATTGCAACCAGAT
# How the values were obtained:
# [1] = biological target: HD1 (MBP-HD1);GHD8 (His-GHD8, NF-YB) (Oryza sativa (rice);Oryza sativa (rice), UniProt Q9FDX8;Q0J7P4 1-395;1-297, |); assay: EMSA; 5 mM Tris pH 7.5, 25 mM KCl, 0.5 mM DTT, 5 mM MgCl2, 2.5% glycerol, 0.05% NP-40, 50 ng/uL poly(dI-dC), room temperature 20 min, 5% polyacrylamide gel; settings: protein: recombinant;recombinant; tags: MBP (pMAL-c2X; text says MBP 'at the down-stream');N-terminal thioredoxin-His (pET-32); copies: 1;1; label: 3'-biotin; blunt
# Sequence of HD1 (MBP-HD1);GHD8 (His-GHD8, NF-YB) (Q9FDX8 whole entry, chain 1 of 2): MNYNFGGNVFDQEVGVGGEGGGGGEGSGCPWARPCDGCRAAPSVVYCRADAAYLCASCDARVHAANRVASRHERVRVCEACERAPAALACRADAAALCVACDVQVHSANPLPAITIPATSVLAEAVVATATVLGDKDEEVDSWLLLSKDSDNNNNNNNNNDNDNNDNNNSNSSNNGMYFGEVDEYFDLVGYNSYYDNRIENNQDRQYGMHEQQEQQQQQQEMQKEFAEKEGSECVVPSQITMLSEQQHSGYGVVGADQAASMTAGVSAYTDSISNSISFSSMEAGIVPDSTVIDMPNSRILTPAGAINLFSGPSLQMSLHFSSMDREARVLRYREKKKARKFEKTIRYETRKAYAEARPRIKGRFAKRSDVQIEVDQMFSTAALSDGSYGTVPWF
# Sequence of HD1 (MBP-HD1);GHD8 (His-GHD8, NF-YB) (Q0J7P4 whole entry, chain 2 of 2): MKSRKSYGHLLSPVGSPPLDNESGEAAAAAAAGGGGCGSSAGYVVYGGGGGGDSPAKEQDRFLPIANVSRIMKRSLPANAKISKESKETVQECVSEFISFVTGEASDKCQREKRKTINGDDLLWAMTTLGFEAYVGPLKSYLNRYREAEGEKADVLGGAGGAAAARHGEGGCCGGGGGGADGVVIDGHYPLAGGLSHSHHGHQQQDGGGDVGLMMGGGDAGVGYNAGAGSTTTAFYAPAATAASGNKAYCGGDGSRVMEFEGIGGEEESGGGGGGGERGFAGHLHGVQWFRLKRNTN
# [2] = biological target: HD1 (MBP-HD1);GHD8 (His-GHD8, NF-YB);OsHAP5b (His-HAP5b, NF-YC) (Oryza sativa (rice);Oryza sativa …, UniProt Q9FDX8;Q0J7P4;Q655V5 1-395;1-297;1-250, ||); assay: EMSA; considerably stronger signal than HD1 alone; 50x/100x unlabeled F1 competitor; 5 mM Tris pH 7.5, 25 mM KCl, 0.5 mM DTT, 5 mM MgCl2, 2.5% glycerol, 0.05% NP-40, 50 ng/uL poly(dI-dC), room temperature 20 min, 5% polyacrylamide gel; settings: protein: recombinant;recombinant;recombinant; tags: MBP (pMAL-c2X); copies: 1;1;1; label: 3'-biotin; blunt
# Sequence of HD1 (MBP-HD1);GHD8 (His-GHD8, NF-YB);OsHAP5b (His-HAP5b, NF-YC) (Q9FDX8 whole entry, chain 1 of 3): as the sequence (Q9FDX8 whole entry, chain 1 of 2) above
# Sequence of HD1 (MBP-HD1);GHD8 (His-GHD8, NF-YB);OsHAP5b (His-HAP5b, NF-YC) (Q0J7P4 whole entry, chain 2 of 3): as the sequence (Q0J7P4 whole entry, chain 2 of 2) above
# Sequence of HD1 (MBP-HD1);GHD8 (His-GHD8, NF-YB);OsHAP5b (His-HAP5b, NF-YC) (Q655V5 whole entry, chain 3 of 3): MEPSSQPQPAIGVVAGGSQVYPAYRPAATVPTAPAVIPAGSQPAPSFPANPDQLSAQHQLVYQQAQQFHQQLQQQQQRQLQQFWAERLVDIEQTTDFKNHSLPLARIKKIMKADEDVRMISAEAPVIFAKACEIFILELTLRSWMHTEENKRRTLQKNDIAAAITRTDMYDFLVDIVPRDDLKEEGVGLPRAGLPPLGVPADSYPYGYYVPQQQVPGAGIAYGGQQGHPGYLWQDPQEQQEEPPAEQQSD
binder,measurement,setting,value
B1,binding result,[1],binds
same,binding result,[2],binds
